Results: the DeepSol protein solubility set

Test: soluble on expression in E. coli; label from the status in PepcDB or PDB records

Sequence | soluble on expression in E. coli
MGSDKIHHHHHHMPMTNLAALSIPDLQQYAQGAVAAPFGLVLDDGSVLQSLEVVRRVPGKRLVCRGLLNGQAIYAKLFIGGQAGKYAARDKRGARWLAQARLATPTLLLESGVASQGCEALLYGAIPARNAEQVWQDLDEEGRHALALRLVEEVARHHRAGLLQTDLYLKNFLVDAQAVYTLDGDGIRQLRVFGRQRQQWDNLARLISKFDVDAVAAWLPSLLRQYVAVIGGGASDIDIMQQLIARHWRRDMRQYASKVQRSCTDVAVEEKPWHYLAINRAQDSPGVRQALATPDGLLDATSAVRLKSGNTCTVAAVEIDQRKMVIKRYNIKNFWHGLGRAWRPSRAVVSWSNAFRLQLKGIATPAAVAVLERRWLGLRREAYLLTEFMIARDAAEFYADLTIDREVKERVAQRIARLFFQLFCLQLEHGDFKATNILIRDQYPLLIDLDSMRQHACKKRFERRHARDLQRFFKNWQGDAATSQLLAAAFRAVYADGRVLDQAGIVFNQSEKDE | not soluble
MAHHHHHHMSSHALSSGSAPNVSSATTGTVAQQADSLTRNLLLGIPKEGLSPDSPEAADLQAAEAFVSDIQQEILAYDIANAKAIELYAVRWWSAVPFFGRHAKRALAAESTAAAAAAAGETHESTEAAAAAVAVDGSANSSEGHGLRLSPEEAAAALQSGGAYLHRQTSQTPRGFKVERTSALDPGQLSQLAGGASGASESKAVPVPKVNTWLFRRQHPSWVPLMQRWWVPWLCCGSIVLIWTPDVWKLRTLYFCDHQYALLRQSIHKAYWWATMRPEDYAEHIAAIAAERPSRVRGTSCPFE | not soluble
MNDRADFVVPDITTRKNVGLSHDANDFTLPQPLDRYSAEDHATWATLYQRQCKLLPGRACDEFLEGLERLEVDADRVPDFNKLNEKLMAATGWKIVAVPGLIPDDVFFEHLANRRFPVTWWLREPHQLDYLQEPDVFHDLFGHVPLLINPVFADYLEAYGKGGVKAKALGALPMLARLYWYTVEFGLINTPAGMRIYGAGILSSKSESIYCLDSASPNRVGFDLMRIMNTRYRIDTFQKTYFVIDSFKQLFDATAPDFAPLYLQLADAQPWGAGDIAPDDLVLNAGDHQGWADTEDV | soluble
MELVIISGRSGSGKSVALRALEDVGYYCVDNLPFPLIAELASFLLASDCSAVVSLDIRNFPENLTRIDELLHQLSQLTINTKMIFLDCESATLIRRYSDSRRLHPLSNQDLSLASAIELENTLLDPLRQQADYLIDTTHSSPHELAANLRHILRGSTEKELNIVFESFGFKYGLSADADYVFDVRFLPNPHWHAELRAMTGLEQPVIDFLERQTEVHNFIYQTRNYLETWLPMLEKNNRSYLTIAFGCTGGKHRSVFITEQLAKYFQSRGKNVKIRHRSLEKY | not soluble
MRPRRSLLSVPAINIRALEKIRELDCDGVILDLEDSVAPDMKGKARENLEKLFSGPPFDGRETIIRINPLSTPDGKADLQLVLSCRPDAVLLPKVEQPSDIHDVADFLAEADAPEHLKIWAMIETPLGVLNAASIADAAHTPNARLAAFVIGLNDLRKETHVPRLPGRTYLVPWMMQVILAARAYGLDVIDSVSNDFRDIEAFEAECEQGRAMGFDGKMLIHPAQIEAANRHFGPDEATLAEARAIIAAFAKPESVELNIINMNGQMIERLHVGQAERLVAMADIIAQRKAKKT | not soluble
MGHHHHHHSHMKIELSMQPWNPGYSSEGATAQETYTCPKMIEMEQAEAQLAELDLLASMFPGENELIVNDQLAVAELKDCIEKKTMEGRSSKVYFTINMNLDVSDEKMAMFSLACILPFKYPAVLPEITVRSVLLSRSQQTQLNTDLTAFLQKHCHGDVCILNATEWVREHASGYVSRDTSSSPTTGSTVQSVDLIFTRLWIYSHHIYNKCKRKNILEWAKELSLSGFSMPGKPGVVCVEGPQSACEEFWSRLRKLNWKRILIRHREDIPFDGTNDETERQRKFSIFEEKVFSVNGARGNHMDFGQLYQFLNTKGCGDVFQMFFGVEGQ | not soluble
MLKRPIHLSHDFLAEVVDKSSVVVDATMGNGNDTAFLAQLAKKVYAFDVQEQAIRKTSERLAQLGLSNAELILAGHEAVDQYVTEPVRAAIFNLGYLPSADKSIITLPNTTLQALSKLLTLLMVGGRIAIMVYYGHDGGSLEKDALLDFVKQLDQRKVSAMLYQPLNQVNTPPFLIMLEKLADF | not soluble
MRRVVVTGLGALTPIGVGQEAFHKAQLAGKSGVRPITRFDASALPVRIAAEVDVDPGAYLDRKELRRLDRFVQYALIAAQLALEDAGLKPEDLDPERVGTLVGTGIGGMETWEAQSRVFLERGPNRISPFFIPMMIANMASAHIAMRYGFTGPSSTVVTACATGADALGSALRMIQLGEADLVLAGGTEAAITPMAIGAFAVMRALSTRNEEPEKASRPFTLSRDGFVMGEGAGVLVLEAYEHAKKRGARIYAELVGFGRSADAHHITEPHPEGKGAALAMARALKDAGIAPEQVGYINAHGTSTPVGDRAEVLAIKRVFGDHAKRLMVSSTKSMIGHLLGAAGAVEAIATVQALYHGVIPPTINLEDPDPELDLDFVPEPREAKVDYALSNSFAFGGHNAVLAFKRV | soluble
MSAIPAEESDQLLIRPLGAGQEVGRSCIILEFKGRKIMLDCGIHPGLEGMDALPYIDLIDPAEIDLLLISHFHLDHCGALPWFLQKTSFKGRTFMTHATKAIYRWLLSDYVKVSNISADDMLYTETDLEESMDKIETINFHEVKEVAGIKFWCYHAGHVLGAAMFMIEIAGVKLLYTGDFSRQEDRHLMAAEIPNIKPDILIIESTYGTHIHEKREEREARFCNTVHDIVNRGGRGLIPVFALGRAQELLLILDEYWQNHPELHDIPIYYASSLAKKCMAVYQTYVNAMNDKIRKQININNPFVFKHISNLKSMDHFDDIGPSVVMASPGMMQSGLSRELFESWCTDKRNGVIIAGYCVEGTLAKHIMSEPEEITTMSGQKLPLKMSVDYISFSAHTDYQQTSEFIRALKPPHVILVHGEQNEMARLKAALIREYEDNDEVHIEVHNPRNTEAVTLNFR | soluble
MYLPIFCIFLSVVDSLRILQIVPGFTNSHVLFNYRLAETLRFLGHDVKMWTQMEMAMLDTGNNKLPEGVSEYRIPIHFTDTLKTEGLKVFQSMMFESGDAHDLWWTGQEFKDMRVEACEQMLRHDESVYEDFRKDGFDVAIAHFHDLCPLAIAKKMNVKRVIWITHGTSIYEFSAVQLGLRTIPSTIPHPLSSAGFSQLFLDRVQNTLWHLSLLDFVNLPQNLLVDENLFYREFVGADQDDLWDLAKTTVPSLLINGDRMLDFPRPLPIHIAFSGELGVSKGKKLVMEKWLEDIIEKPSDGLIVFSLGTVSNTTNMPAQMINSFLGAFGKLKTYTILWRMEKSVAGAEKYENLHLVKWLPQKDIMRHPKMKLMIAHGGYNSFLEAAQAGIPAVLMPLFADQKINAKRAQRYGMATVLDKLDLTINNVYGAIKEALKPEYSTNAKKLSAMLSDQVARKPYSALRYSLKLATSPKPSLFTLKSQHLSFLEFHNLDIFSIVLLTAFIVCF | not soluble
GSSHHHHHHSFFFLSFHISNLQFNSSLEDPSTDYYQELQRDISEMFLQIYKQGGFLGLSNIKFRPG | soluble
MFARIESGKIIAQKRKELGKTQKVLAEETNVNKSIISQIENGKFSGSLRVYEKYINGLGLELAVRPIKSKIPDFDNLHHLFPDE | not soluble
MSERIASVERTTSETHISCTIDLDHIPGVTEQKINVSTGIGFLDHMFTALAKHGGMSLQLQCKGDLHIDDHHTAEDCALALGEAFKKALGERKGIKRYGYAYAPLDESLSRAVIDISSRPYFMCHLPFTREKVGDLSTEMVSHLLQSFAFAAGVTLHIDSIRGENNHHIAESAFKALALAIRMAISRTGGDDVPSTKGVLAL | soluble
MSLNYEMFAKLYDRLMADAPYDRWAKLVEEEIRKAIFSDVNLLDIGCGTGRLLKILSERGYACTGVDQSANMLVIAREALAQKGVQVPLFQQDMTEFYTGETYQVITIFCDSLNYVITEEGVVQTFQRVFDHLDQQGVFMFDVHSPTKLRNHFIGKTFADADEEISYIWQSFAGEAEQSVEHELTFFVRNETGSYDRYEELHIQRGYPIERYVDWLKEAGFSRIDITADFTNEAPTENSERIFFKAYKKEGHHHHHH | soluble
LRSSSQNSSDKPVAHVVANHQVEEQLEWLSQRANALLANGMDLKDNQLVVPADGLYLVYSQVLFKGQGCPDYVLLTHTVSRFAISYQEKVNLLSAVKSPCPKDTPEGAELKPWYEPIYLGGVFQLEKGDQLSAEVNLPKYLDFAESGQVYFGVIAL | soluble
MGFPIPDPYVWDPSFRTFYSIIDDEHKTLFNGIFHLAIDDNADNLGELRRCTGKHFLNEQVLMQASQYQFYDEHKKEHETFIHALDNWKGDVKWAKSWYVNHIKTIDFKYKGKI | soluble
MGGAVEVSATINNVGNYNAEEVVQLYIRDIVGNVTRPIKELKGFQRITLGKGESMVVTFKLHTDELAFYNQQMEYKPEAGLFHVWIGGDSSTTLKTEFEVTDLEHHHHHH | not soluble
MAVPPAYADLGKSAKDIFSKGYGFGTVKLDLKTKSQSGVEFTTGGSSNTDTGKAAGNLETKYKVKELGLSLNQKWNTDNVLTTEVTLEDQLAKGLKLGLDTSFVPNTGKKSAKLKTGYKREYMNVGCDLDFDLAGPTVHAAAVLGYEGWLAGYQMAFDTAKSKLAQNNFALGYKAGDFQLHTNVNDGTEFGGSIYQKVNGQLETAVNLAWTAGSNNTRFGIAAKYQLDKDSSVSAKVNNASLVGVGYTQSLRPGVKLTLSALIDAKNFNAGGHKVGMGFELEV | not soluble
RRNDDAGMIIPSFGISYDDQYDLIDEIERISKLTDVDEIKKSMDAIDGKKMDFDLGGVVAVGIPNKFLSATVYGKLYTESFVQPNVDTSGADPLTDSYVQGVSIGVAEAGVSLAKYTNFMNQHLSFGITPKLQRIYTYSYATSFKNFDTKDLREHETAETMFNLDAGALWFFGPYRLGISAKNLIGRDVKTKSFQYNTDTIQSYEYSMRPVYTVGAGIVADYFTMSVDYDLNEEKRFSSFDDNTQMIRAGFEIDILRQMALRGGYMKNLARSNDEGTITAGIGLSPLNLIELDISARYTNENAMGASINFLATY | not soluble
LGIDLLSYYIEAGSCMIYYNEKPYIDEFQQYVSDNDISTTDVEQYDEWMSEHDVAFYSVQEMGKVIYNKSNVDKLISPAKNMYDYRFTGSYELPVQFSDIEAEVFIYTGFTEKYY | not soluble
MSLQNPFVPQLVYIEPRALEYPLGQELQDKFENMGIEIRETTSHNQVRNIPGKNHLQQYRNAKSTLVIGVRKTLKFDSSKPSAEYAIPFATGCMGHCHYCYLQTTMGSKPYIRTYVNVEEILDQADKYMKERAPEFTRFEASCTSDIVGIDHLTHTLKRAIEHFGQSDLGKLRFVTKFHHVDHLLDAKHNGKTRFRFSINADYVIKNFEPGTSPLDKRIEAAVKVAKAGYPLGFIVAPIYIHEGWEEGYRHLFEKLDAALPQDVRHDITFELIQHRFTKPAKRVIEKNYPKTKLELDEEKRRYKWGRYGIGKYIYQKDEEHALREALESYIDTFFPNAKIEYFTEGHHHHHH | soluble
MGSDKIHHHHHHMERLQALEAWAARQLGQETVDIAPASADASFRRYFRVTAKGRDYIVMDAPPAHEDCGPFIAVARLFGDAGVHVPEVLAQDLDQGFLLLTDLGHTTYLSALNESTARELYLAANDALIRIQLASRPGVLPDYDRALLTRELMLFPEWYVAKHLGVELNAAQRATLDTVFERLLTNNLAQPQVYVHRDWHSRNLMVSDPNPGILDFQDAVFGPITYDLASIYRDAYIQWDEERQLDWVIRYWEKARAARLPVAADFGDFWRDFEWMGAQRHLKVLGIFARLYHRDGKDGYLKDMPLVMHYLRSVCGRYDELKPLLLLLDALQDRQPQAGYTF | not soluble
KKLCGYLSKFGGKGPIRGWKSRWFFYDERKCQLYYSRTAQDANPLDSIDLSSAVFDCKADAEEGIFEIKTPSRVITLKAATKQAMLYWLQQLQMKRWEFHNSPPAP | soluble
